In patent publication US20100143379A1 (priority 2005, published 2010):

Columns and labels:
Type in all cases: cell-based
CXCR4 = experiment: Cell surface receptor expression in monocyte-derived macrophages (FACS); conditions: 50 ng/ml with PMB 10 μg/ml, 48 h
Procedure: (§1) Cell surface expression of CCR5 and CXCR4 was analyzed by FACS after staining with FITC-conjugated anti-CCR5 and PE-conjugated anti-CXCR4 antibodies (Pharmingen). Results (percent of receptor-positive cells) are shown as mean±SE for three performed experiments.
(§2) Cell surface expression of CCR5 and CXCR4 was analyzed by FACS after staining with FITC-conjugated anti-CCR5 and PE-conjugated anti-CXCR4 antibodies (Pharmingen) (FIG. 9).

CCR5 = experiment: as above; conditions: 50 ng/ml with PMB 10 μg/ml, 48 h
Procedure: as §1, §2

X4 (LAI) strain of HIV-1 = experiment: HIV-1 replication in PHA-activated PBMC cultures (RT activity); conditions: 50 ng/ml; p>0.05
Procedure: (§3) At indicated time points after infection, reverse transcriptase activity was measured in culture supernatants. Results are mean±SD. Whereas differences between MIF-treated and control cultures of ADA-infected PBMCs are highly statistically significant (p<0.01), differences between MIF-treated and control cultures of LAI-infected cells are not significant (p>0.05).
as §3, with “supernatants.” for “supernatants. Results are mean±SD.”, “(p>0.05) (FIG. 8).” for “(p>0.05).”

R5 (ADA) strain of HIV-1 = experiment: as above; conditions: 50 ng/ml; p<0.01
Procedure: as §3
as §3, with “supernatants.” for “supernatants. Results are mean±SD.”, “(p>0.05) (FIG. 8).” for “(p>0.05).”

Src = experiment: Tyrosine kinase phosphorylation in COS-7/M6 transformants and MEFs (immunoblot); conditions: COS-7 transformants and MEFs
Source text: Two members of the non-receptor, protein tyrosine kinase family, p56^lck and c-Src (Src), may physically associate with the intracytoplasmic domain of CD44 (Elaimin I. Taher (1996). J. Biol. Chem. 271:2863-2867 and Bourguignon et al. (2001). J. Biol. Chem. 276:7327-7336), and either kinase may lead to downstream ERK1/2 phosphorylation via a Ras-Raf-MEK-dependent pathway (Ishida et al. (1998). Circ Res 82:7-12; Migliaccio et al. (2000). EMBO J. 19:5406-5417; and Mahabeleshwar et al. (2003). J. Biol. Chem. 278:52598-52612). […] The level of p56^lck phosphorylation appeared less in the MEFs than in the COS-7 cells, which may be attributed to the lower level of expression of the p56^lck kinase in cells of fibroblast lineage (Oikawa et al. (2001). Immunol. 104:162-167), or to a higher activation and coupling efficiency of CD44 when over-expressed in COS-7 cells.
Signal Transduction Assays. […] The human CD74 ectodomain (CD74^73-232) was prepared recombinantly in soluble form (sCD74) as described previously (Leng et al. (2003). J Exp Med 197:1467-1476). […] Cells then were harvested and lysed in buffer containing 50 mM Hepes, pH7.5, 150 mM NaCl, 1.5 mM MgCl2, 1 mM EGTA, 1% Glycerol and 1% Triton X-100, and freshly added phosphatase and proteinase inhibitors (1 mM orthovanandate, 10 mM NaF, 10 μg/ml leupeptin, 25 μg/ml aprotinin and 50 μg/ml PMSF). […]

CD74 = CD74 phospho-serine sandwich ELISA; conditions: MIF 100 ng/ml, 10 mins; COS-7/CD74+CD44 cell line and wild-type MEFs
Procedure: FIGS. 12A-12E show the phosphoserine content of CD74 and CD44 measured by ELISA. […] The ELISA values represent the mean±SD of triplicate measurements. Experiments were replicated twice. *P<0.02 versus corresponding control (Student's T test, two-tailed). […] Cell lysates were prepared and probed for PKA and PKC using phospho-specific, and total anti-PKA and anti-PKC antibodies.
The observation that the phosphoserine content of CD74 increased only in cells that expressed CD74 and full-length CD44 is consistent with the notion that the MIF-mediated phosphorylation of CD74 is dependent on the activity of the CD44 intracytoplasmic domain.
The serine phosphorylation of CD74 and CD44 was quantified by specific sandwich ELISA (Perez et al. (2003). Nature Immunol 4:1083-92). […] After several washes (0.5% Tween-20 in PBS), 0.2 μg/ml anti-phospho-serine antibody (Hypromatrix) conjugated with horseradish peroxidase was added, and immunoreactivity measured by the TMB reagent (DakoCytomation) and the data analyzed with SpectraMax Plus (Molecular Devices).
Cell lysates were collected and analyzed by immunoblots using a pair of anti-phospho-PICA and anti-(total)-PKA antibodies, a pair of anti-phospho-PKC (all from Cell Signaling) and anti-(total)-PKC (Santa Cruz) antibodies, or a pair of anti-phospho-p56^lck (Cell Signaling) and anti-(total) p56^lck (sc-433, Santa Cruz) antibodies.

B1: MIF: macrophage migration inhibitory factor; recombinant mouse or human MIF purified essentially free of endotoxin (protein)
chain: PMFIVNTNVPRASVPDGFLSELTQQLAQATGKPPQYIAVHVVPDQLMAFGGSSEPCALCSLHSIGKIGGAQNRSYSKLLCGLLAERLRISPDRVYINYYDMNAANVGWNNSTFA
CXCR4
  CXCR4 expression: without altering expression of CXCR4
CCR5
  CCR5 expression: substantially reduces CCR5 expression
X4 (LAI) strain of HIV-1
  X4 HIV-1 replication (RT activity): did not reduce replication
R5 (ADA) strain of HIV-1
  R5 HIV-1 replication (RT activity): reduced R5 HIV-1 replication
Src
  Src phosphorylation: An increase in the phosphorylation of the Src kinase was not detected
CD74
  phosphorylation of CD74 (phospho-serine content): increased significantly
